Columns and labels:
Assay in all cases: BLI; biotinylated Avi-tag-ZIgE-SpyCatcher loaded on streptavidin Octet tips (2.5 ug/ml, 60 s); IgE as analyte in PBST with 30 mg/ml skimmed milk; 300 s association, 400 s dissociation; 1:1 binding model assuming only partial dissociation; mean of three IgE concentrations
[1] = target: Avi-tag-ZIgE^wild-type-SpyCatcher
[2] = target: Avi-tag-ZIgE^44-SpyCatcher
[3] = target: Avi-tag-ZIgE^consensus-SpyCatcher
[4] = target: Avi-tag-ZIgE^33-SpyCatcher

For “IgE (native human monoclonal, Abcam ab65866) (antibody)”, the Kd [1] was 7.3 µM, the Kd [2] was 4.8 µM and the Kd [3] was 0.61 µM. The Kd [4] was 2.1 µM.

From article PMC7293038
